Residue numbers refer to the chain shown, from its start. Each block holds one binder with its values, some of them ahead of it.
Assays:
fibronectin [1] = assay: summary of Example 1-10: ELISA on fibronectin-immobilized plate
Description: (§1) The fibronectin-binding of each low-pI TM2 was compared using a microplate to which fibronectin was immobilized. The concentration of fibronectin was adjusted to 50 μg/mL with a fixation solution exclusive for a New ELISA plate, and the fibronectin solution (50 μL) was added to each New ELISA plate (Sumitomo Bakelite), followed by shaking at 37° C. for 4 hours for immobilization. Then, the plate was washed with 0.1% Triton X-100-containing PBS (300 μL) three times and was then dried naturally.
(§2) TM2, K26A, K73Q, R104E, K141E, and R104EK141E mutants (50 μL each) were each added to the corresponding well of the plate and left at room temperature for 1 hour. The plate was washed with 300 μL/well of PBST (PBS buffer containing 0.1% Tween 20) three times. Then, biotinylated HRP diluted 5000 times with PBST containing 0.5% BSA was added at 50 μL/well and allowed to react with the mutant at room temperature for 1 hour. After washing with 300 μL/well of PBST three times, 50 μL/well of 1-Step Ultra TMB-ELISA solution was added to each well for color development.

fibronectin [2] = assay: ELISA on fibronectin-immobilized plate, biotinylated HRP detection
Description: as §1, §2

B2: TM2 K26A (other)
chain: MSDVQSSLTGTWYNELNSKMELTANADGTLTGKYLSKVGDVYVPYPLSGRYNLQPPAGQGVALGWAVSWENSKIHSATTWSGQFFSESSPVILTQWLLSSSTARGDVWESTLVGNDSFTKTAPTEQQIAHAQLHCRAPRLK
notes: TM2 mutant
Binding of fibronectin (A450) (fibronectin [2]): 0.85 A450

B3: TM2 K141E (other)
chain: B2 chain with A26K, K141E
notes: TM2 mutant
amount of fibronectin binding relative to wild type TM2 (fibronectin [1]): 10 to 20 % of wild type TM2
Binding of fibronectin (A450) (fibronectin [2]): 0.21 A450

B4: TM2 K73Q (other)
chain: B2 chain with A26K, K73Q
notes: TM2 mutant
Binding of fibronectin (A450) (fibronectin [2]): 0.98 A450

B5: TM2 R104E (other)
chain: B2 chain with A26K, R104E
notes: TM2 mutant
Binding of fibronectin (A450) (fibronectin [2]): 0.7 A450

The next lines start with results.

Binding of fibronectin (A450) (fibronectin [2]): 0.11 A450
B1: TM2 R104EK141E (other)
chain: B2 chain with A26K, R104E, K141E
notes: TM2 double mutant; also called R104-K141
amount of fibronectin binding relative to wild type TM2 (fibronectin [1]): 10 to 20 % of wild type TM2

Binding of fibronectin (A450) (fibronectin [2]): 1.34 A450
B6: tamavidin 2 (wild type) (other)
chain: B2 chain with A26K
notes: also called TM2; TM2WT
